In publication PMC6112790, “MicroED structure of the NaK ion channel reveals a Na^+ partition process into the selectivity filter” (Communications Biology, 2018):

Biological target: the molecule itself
Experiment: crystal structure; MicroED (electron diffraction, continuous rotation) of nano-crystals grown in Na+ buffers with MPD, protein in DM detergent; 11 crystals merged; 2.5 Å; space group I4; tetramer on the four-fold axis

B1: NaK–∆19 (NaK ion channel from Bacillus cereus with the first 19 residues truncated) (domain or fragment)
chain: KDKEFQVLFVLTILTLISGTIFYSTVEGLRPIDALYFSVVTLTTVGDGNFSPQTDFGKIFTILYIFIGIGLVFGFIHKLAVNVQLPSILSNRKKE
notes: NaK channel, Bacillus cereus, wild type with the first 19 residues truncated (about 10-kDa monomer); also called molA; molB
**Q.** For B1, which “stoichiometry N” value is on record?
**A.** 4
